This note sets out measurements from US20210230570.

In data set [1] the target is Factor X (FX), P00742.
Data set [2] deals with Factor X, P00742.
For data set [3], the target named is plasma purified human AT-III (antithrombin III), in complex with full-length unfractionated heparin (AT-III/UFH).
Data set [4] deals with plasma purified human antithrombin III (AT-III) in complex with full-length unfractionated heparin (UFH).

Broadly, the kcat/KM is the turnover number divided by the Michaelis constant.

Sequence of Factor X, P00742 (P00742 whole entry, looked up): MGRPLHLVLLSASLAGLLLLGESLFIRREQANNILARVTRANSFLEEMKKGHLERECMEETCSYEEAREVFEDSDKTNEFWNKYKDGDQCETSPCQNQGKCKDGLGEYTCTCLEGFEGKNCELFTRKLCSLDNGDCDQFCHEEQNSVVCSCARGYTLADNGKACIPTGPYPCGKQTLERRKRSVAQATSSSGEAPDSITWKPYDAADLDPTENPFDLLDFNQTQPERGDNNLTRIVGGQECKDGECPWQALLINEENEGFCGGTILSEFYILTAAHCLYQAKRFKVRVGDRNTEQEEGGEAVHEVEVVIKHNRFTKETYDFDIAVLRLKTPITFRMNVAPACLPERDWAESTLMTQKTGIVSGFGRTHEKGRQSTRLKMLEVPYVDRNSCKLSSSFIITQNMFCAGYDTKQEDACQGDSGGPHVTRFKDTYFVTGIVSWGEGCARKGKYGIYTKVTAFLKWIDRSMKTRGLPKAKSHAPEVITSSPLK
Sequence of Factor X (FX), P00742 (P00742 whole entry, looked up): as above

B1: FIXa-R318Y/R338E/R403E/E410N/T412A (protein)
chain 1: YNSGKLEEFVQGNLERECMEEKCSFEEAREVFENTERTTEFWKQYVDGDQCESNPCLNGGSCKDDINSYECWCPFGFEGKNCELDVTCNIKNGRCEQFCKNSADNKVVCSCTEGYRLAENQKSCEPAVPFPCGRVSVSQTSKLTR
chain 2: VVGGEDAKPGQFPWQVVLNGKVDAFCGGSIVNEKWIVTAAHCVETGVKITVVAGEHNIEETEHTEQKRNVIRIIPHHNYNAAINKYNHDIALLELDEPLVLNSYVTPICIADKEYTNIFLKFGSGYVSGWGRVFHKGYSALVLQYLRVPLVDRATCLESTKFTIYNNMFCAGFHEGGRDSCQGDSGGPHVTEVEGTSFLTGIISWGEECAMKGKYGIYTKVSEYVNWIKNKAKLT
As to B1, the kcat/KM in data set [1] amounted to 2.6e+08 M⁻¹ s⁻¹. Further, the kcat of FX activation by FIXa (Xase complex with FVIIIa, PC/PS vesicles, Ca2+) in data set [2] was determined as 8.4 s⁻¹. In data set [3], this protein displayed a K0.5-mut/K0.5-wt (against Catalyst Biosciences WT FIXa) above 517.

B2: FIXa Y259F/K265T/Y345T (protein)
chain 1: YNSGKLEEFVQGNLERECMEEKCSFEEAREVFENTERTTEFWKQYVDGDQCESNPCLNGGSCKDDINSYECWCPFGFEGKNCELDVTCNIKNGRCEQFCKNSADNKVVCSCTEGYRLAENQKSCEPAVPFPCGRVSVSQTSKLTR
chain 2: VVGGEDAKPGQFPWQVVLNGKVDAFCGGSIVNEKWIVTAAHCVETGVKITVVAGEHNIEETEHTEQKRNVIRIIPHHNFNAAINTYNHDIALLELDEPLVLNSYVTPICIADKEYTNIFLKFGSGYVSGWGRVFHKGRSALVLQYLRVPLVDRATCLRSTKFTITNNMFCAGFHEGGRDSCQGDSGGPHVTEVEGTSFLTGIISWGEECAMKGKYGIYTKVSRYVNWIKEKTKLT
For B2, the K0.5-mut/K0.5-wt in data set [4] worked out at 0.3 fold.

B3: FIXa D85N/K228N/R318Y/R338E/R403E/E410N (protein)
chain 1: YNSGKLEEFVQGNLERECMEEKCSFEEAREVFENTERTTEFWKQYVDGDQCESNPCLNGGSCKDDINSYECWCPFGFEGKNCELNVTCNIKNGRCEQFCKNSADNKVVCSCTEGYRLAENQKSCEPAVPFPCGRVSVSQTSKLTR
chain 2: VVGGEDAKPGQFPWQVVLNGKVDAFCGGSIVNEKWIVTAAHCVETGVNITVVAGEHNIEETEHTEQKRNVIRIIPHHNYNAAINKYNHDIALLELDEPLVLNSYVTPICIADKEYTNIFLKFGSGYVSGWGRVFHKGYSALVLQYLRVPLVDRATCLESTKFTIYNNMFCAGFHEGGRDSCQGDSGGPHVTEVEGTSFLTGIISWGEECAMKGKYGIYTKVSEYVNWIKNKTKLT
B3 showed a K0.5-mut/K0.5-wt in data set [4] above 517 fold.

B4: FIXa A103N/N105S/K247N/N249S/R318Y/R338E/R403E/E410N (protein)
chain 1: YNSGKLEEFVQGNLERECMEEKCSFEEAREVFENTERTTEFWKQYVDGDQCESNPCLNGGSCKDDINSYECWCPFGFEGKNCELDVTCNIKNGRCEQFCKNSNDSKVVCSCTEGYRLAENQKSCEPAVPFPCGRVSVSQTSKLTR
chain 2: VVGGEDAKPGQFPWQVVLNGKVDAFCGGSIVNEKWIVTAAHCVETGVKITVVAGEHNIEETEHTEQNRSVIRIIPHHNYNAAINKYNHDIALLELDEPLVLNSYVTPICIADKEYTNIFLKFGSGYVSGWGRVFHKGYSALVLQYLRVPLVDRATCLESTKFTIYNNMFCAGFHEGGRDSCQGDSGGPHVTEVEGTSFLTGIISWGEECAMKGKYGIYTKVSEYVNWIKNKTKLT
B4: the K0.5-mut/K0.5-wt in data set [4] worked out at 129 fold.

B5: FIXa Y155F/K247N/N249S/R318Y/R338E/R403E/E410N (protein)
chain 1: YNSGKLEEFVQGNLERECMEEKCSFEEAREVFENTERTTEFWKQYVDGDQCESNPCLNGGSCKDDINSYECWCPFGFEGKNCELDVTCNIKNGRCEQFCKNSADNKVVCSCTEGYRLAENQKSCEPAVPFPCGRVSVSQTSKLTR
chain 2: VVGGEDAKPGQFPWQVVLNGKVDAFCGGSIVNEKWIVTAAHCVETGVKITVVAGEHNIEETEHTEQNRSVIRIIPHHNYNAAINKYNHDIALLELDEPLVLNSYVTPICIADKEYTNIFLKFGSGYVSGWGRVFHKGYSALVLQYLRVPLVDRATCLESTKFTIYNNMFCAGFHEGGRDSCQGDSGGPHVTEVEGTSFLTGIISWGEECAMKGKYGIYTKVSEYVNWIKNKTKLT
On to B5, for which the K0.5-mut/K0.5-wt in data set [4] was above 517 fold.

B6: FIXa K247N/N249S/R318Y/R338E/R403E/E410N (protein)
chain 1: YNSGKLEEFVQGNLERECMEEKCSFEEAREVFENTERTTEFWKQYVDGDQCESNPCLNGGSCKDDINSYECWCPFGFEGKNCELDVTCNIKNGRCEQFCKNSADNKVVCSCTEGYRLAENQKSCEPAVPFPCGRVSVSQTSKLTR
chain 2: VVGGEDAKPGQFPWQVVLNGKVDAFCGGSIVNEKWIVTAAHCVETGVKITVVAGEHNIEETEHTEQNRSVIRIIPHHNYNAAINKYNHDIALLELDEPLVLNSYVTPICIADKEYTNIFLKFGSGYVSGWGRVFHKGYSALVLQYLRVPLVDRATCLESTKFTIYNNMFCAGFHEGGRDSCQGDSGGPHVTEVEGTSFLTGIISWGEECAMKGKYGIYTKVSEYVNWIKNKTKLT
Regarding B6, the K0.5-mut/K0.5-wt in data set [4] stood at 418 fold.

B7: FIXa D104N/K106S/K247N/N249S/R318Y/R338E/R403E/E410N (protein)
chain 1: YNSGKLEEFVQGNLERECMEEKCSFEEAREVFENTERTTEFWKQYVDGDQCESNPCLNGGSCKDDINSYECWCPFGFEGKNCELDVTCNIKNGRCEQFCKNSANNSVVCSCTEGYRLAENQKSCEPAVPFPCGRVSVSQTSKLTR
chain 2: VVGGEDAKPGQFPWQVVLNGKVDAFCGGSIVNEKWIVTAAHCVETGVKITVVAGEHNIEETEHTEQNRSVIRIIPHHNYNAAINKYNHDIALLELDEPLVLNSYVTPICIADKEYTNIFLKFGSGYVSGWGRVFHKGYSALVLQYLRVPLVDRATCLESTKFTIYNNMFCAGFHEGGRDSCQGDSGGPHVTEVEGTSFLTGIISWGEECAMKGKYGIYTKVSEYVNWIKNKTKLT
In data set [4], B7 yielded a K0.5-mut/K0.5-wt above 517 fold.

B8: FIXa I251S/R318Y/R338E/R403E/E410N (protein)
chain 1: YNSGKLEEFVQGNLERECMEEKCSFEEAREVFENTERTTEFWKQYVDGDQCESNPCLNGGSCKDDINSYECWCPFGFEGKNCELDVTCNIKNGRCEQFCKNSADNKVVCSCTEGYRLAENQKSCEPAVPFPCGRVSVSQTSKLTR
chain 2: VVGGEDAKPGQFPWQVVLNGKVDAFCGGSIVNEKWIVTAAHCVETGVKITVVAGEHNIEETEHTEQKRNVSRIIPHHNYNAAINKYNHDIALLELDEPLVLNSYVTPICIADKEYTNIFLKFGSGYVSGWGRVFHKGYSALVLQYLRVPLVDRATCLESTKFTIYNNMFCAGFHEGGRDSCQGDSGGPHVTEVEGTSFLTGIISWGEECAMKGKYGIYTKVSEYVNWIKNKTKLT
In turn, B8 gave a K0.5-mut/K0.5-wt in data set [4] above 517 fold.

B9: FIXa D104N/K106S/I251S/R318Y/R338E/E410N (protein)
chain 1: YNSGKLEEFVQGNLERECMEEKCSFEEAREVFENTERTTEFWKQYVDGDQCESNPCLNGGSCKDDINSYECWCPFGFEGKNCELDVTCNIKNGRCEQFCKNSANNSVVCSCTEGYRLAENQKSCEPAVPFPCGRVSVSQTSKLTR
chain 2: VVGGEDAKPGQFPWQVVLNGKVDAFCGGSIVNEKWIVTAAHCVETGVKITVVAGEHNIEETEHTEQKRNVSRIIPHHNYNAAINKYNHDIALLELDEPLVLNSYVTPICIADKEYTNIFLKFGSGYVSGWGRVFHKGYSALVLQYLRVPLVDRATCLESTKFTIYNNMFCAGFHEGGRDSCQGDSGGPHVTEVEGTSFLTGIISWGEECAMKGKYGIYTKVSRYVNWIKNKTKLT
Take B9: the K0.5-mut/K0.5-wt in data set [4] came out at 464 fold.

B10: FIXa Y155F/K228N/R318Y/R338E/R403E/E410N (protein)
chain 1: YNSGKLEEFVQGNLERECMEEKCSFEEAREVFENTERTTEFWKQYVDGDQCESNPCLNGGSCKDDINSYECWCPFGFEGKNCELDVTCNIKNGRCEQFCKNSADNKVVCSCTEGYRLAENQKSCEPAVPFPCGRVSVSQTSKLTR
chain 2: VVGGEDAKPGQFPWQVVLNGKVDAFCGGSIVNEKWIVTAAHCVETGVNITVVAGEHNIEETEHTEQKRNVIRIIPHHNYNAAINKYNHDIALLELDEPLVLNSYVTPICIADKEYTNIFLKFGSGYVSGWGRVFHKGYSALVLQYLRVPLVDRATCLESTKFTIYNNMFCAGFHEGGRDSCQGDSGGPHVTEVEGTSFLTGIISWGEECAMKGKYGIYTKVSEYVNWIKNKTKLT
In data set [4], B10 yielded a K0.5-mut/K0.5-wt above 517 fold.

B11: FIXa Y155F/I251S/R318Y/R338E/R403E/E410N (protein)
chain 1: YNSGKLEEFVQGNLERECMEEKCSFEEAREVFENTERTTEFWKQYVDGDQCESNPCLNGGSCKDDINSYECWCPFGFEGKNCELDVTCNIKNGRCEQFCKNSADNKVVCSCTEGYRLAENQKSCEPAVPFPCGRVSVSQTSKLTR
chain 2: VVGGEDAKPGQFPWQVVLNGKVDAFCGGSIVNEKWIVTAAHCVETGVKITVVAGEHNIEETEHTEQKRNVSRIIPHHNYNAAINKYNHDIALLELDEPLVLNSYVTPICIADKEYTNIFLKFGSGYVSGWGRVFHKGYSALVLQYLRVPLVDRATCLESTKFTIYNNMFCAGFHEGGRDSCQGDSGGPHVTEVEGTSFLTGIISWGEECAMKGKYGIYTKVSEYVNWIKNKTKLT
In turn, B11 yielded a K0.5-mut/K0.5-wt in data set [4] above 517 fold.

B12: FIXa K228N/R318Y/R338E/R403E/E410N (protein)
chain 1: YNSGKLEEFVQGNLERECMEEKCSFEEAREVFENTERTTEFWKQYVDGDQCESNPCLNGGSCKDDINSYECWCPFGFEGKNCELDVTCNIKNGRCEQFCKNSADNKVVCSCTEGYRLAENQKSCEPAVPFPCGRVSVSQTSKLTR
chain 2: VVGGEDAKPGQFPWQVVLNGKVDAFCGGSIVNEKWIVTAAHCVETGVNITVVAGEHNIEETEHTEQKRNVIRIIPHHNYNAAINKYNHDIALLELDEPLVLNSYVTPICIADKEYTNIFLKFGSGYVSGWGRVFHKGYSALVLQYLRVPLVDRATCLESTKFTIYNNMFCAGFHEGGRDSCQGDSGGPHVTEVEGTSFLTGIISWGEECAMKGKYGIYTKVSEYVNWIKNKTKLT
Consider B12, for which the K0.5-mut/K0.5-wt in data set [4] is above 517 fold.

B13: FIXa I251S/R318Y/R338E/E410N (protein)
chain 1: YNSGKLEEFVQGNLERECMEEKCSFEEAREVFENTERTTEFWKQYVDGDQCESNPCLNGGSCKDDINSYECWCPFGFEGKNCELDVTCNIKNGRCEQFCKNSADNKVVCSCTEGYRLAENQKSCEPAVPFPCGRVSVSQTSKLTR
chain 2: VVGGEDAKPGQFPWQVVLNGKVDAFCGGSIVNEKWIVTAAHCVETGVKITVVAGEHNIEETEHTEQKRNVSRIIPHHNYNAAINKYNHDIALLELDEPLVLNSYVTPICIADKEYTNIFLKFGSGYVSGWGRVFHKGYSALVLQYLRVPLVDRATCLESTKFTIYNNMFCAGFHEGGRDSCQGDSGGPHVTEVEGTSFLTGIISWGEECAMKGKYGIYTKVSRYVNWIKNKTKLT
Protein B13 registered a K0.5-mut/K0.5-wt in data set [4] of 303 fold.

B14: FIXa D104N/K106S/I251S/R318Y/R338E/R403E/E410N (protein)
chain 1: YNSGKLEEFVQGNLERECMEEKCSFEEAREVFENTERTTEFWKQYVDGDQCESNPCLNGGSCKDDINSYECWCPFGFEGKNCELDVTCNIKNGRCEQFCKNSANNSVVCSCTEGYRLAENQKSCEPAVPFPCGRVSVSQTSKLTR
chain 2: VVGGEDAKPGQFPWQVVLNGKVDAFCGGSIVNEKWIVTAAHCVETGVKITVVAGEHNIEETEHTEQKRNVSRIIPHHNYNAAINKYNHDIALLELDEPLVLNSYVTPICIADKEYTNIFLKFGSGYVSGWGRVFHKGYSALVLQYLRVPLVDRATCLESTKFTIYNNMFCAGFHEGGRDSCQGDSGGPHVTEVEGTSFLTGIISWGEECAMKGKYGIYTKVSEYVNWIKNKTKLT
For B14, the K0.5-mut/K0.5-wt in data set [4] is above 517 fold.
